Results from article PMC11169542, “A probe for NIR-II imaging and multimodal analysis of early Alzheimer’s disease by targeting CTGF” (Nature Communications, 2024).
Ends that are not written are not given here.

What was measured:
CTGF [1] = test: Quantitating CTGF in DGC-labelled cells by ICP-MS; type: cell-based
Method: After U87MG, SH-SY5Y, and CTX TNA2 cells were imaged by a laser confocal microscopy system, these cells labeled with DGC were quantitatively analyzed by an ICP-MS system (Thermo Elemental X7, USA). Each cell group in the glass vials was digested by adding 5 mL aqua regia (HCl: HNO3 = 3:1) overnight. Subsequently, the aqua regia was heated to evaporate to the last drop to be diluted by a mixture of 2% HNO3 and 1% HCl. A standard curve of Au was made to quantify the concentration of Au in different cells. ICP-MS was used to test the Au signal in triplicates.

CTGF [2] = biological target: T1, CTGF (Mus musculus, UniProt P29268); test: DGC fluorescence labelling of AD mouse brain sections in vitro; design: species or system APP/PS1 and wild-type C57BL/6J mice; conditions: 200 μM DGC 4 °C overnight
T1 construct: brain sections of the age-matched wild-type C57BL/6J mice were used as controls; from tissue; host or cells: brain of APP/PS1 transgenic and wild-type C57BL/6J mice (sections, living animal, perfused isolated brain)
T1 sequence (P29268 26-348): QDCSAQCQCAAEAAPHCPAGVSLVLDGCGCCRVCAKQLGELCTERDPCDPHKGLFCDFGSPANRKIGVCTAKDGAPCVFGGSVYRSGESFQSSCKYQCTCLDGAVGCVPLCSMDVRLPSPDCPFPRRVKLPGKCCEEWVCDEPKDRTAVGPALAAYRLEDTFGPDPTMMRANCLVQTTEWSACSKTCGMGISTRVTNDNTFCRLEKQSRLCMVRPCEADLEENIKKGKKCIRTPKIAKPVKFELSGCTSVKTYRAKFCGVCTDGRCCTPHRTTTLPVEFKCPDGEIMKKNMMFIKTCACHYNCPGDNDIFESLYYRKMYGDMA
Description: To evaluate the expression of CTGF in the brain of AD mice and the efficacy of DGC in vitro, brain sections of APP/PS1 transgenic mice (derived from C57BL/6J) from 1-month to 9-month-old (1-, 2-, 3-, 6- and 9-month-old, female, n = 3) were used as AD model, and brain sections of the age-matched wild-type C57BL/6J mice were used as controls (female, n = 3). The brain sections were subjected to CTGF antibody immunofluorescence staining and DGC fluorescence imaging. The brains were collected and fixed with 4% PFA. The embedded brain was then sectioned using a microtome into 5-μm thick consecutive sections. The brain sections were immersed in Tris-EDTA buffer (pH = 9.0) at 95 °C for 15 min. The brain sections were then incubated with 3% bovine serum albumin for 1.5 h. Then, the brain sections were stained overnight at 4 °C with an anti-CTGF primary antibody (dilution 1:50, Abcam, Cat#ab6992). After restoring room temperature, they were washed with TBST (pH = 7.4, 3 × 5 min) and incubated with FITC-labeled Goat Anti-Rabbit IgG (h +L) (1: dilution 1:200, Bioss, Cat#bs-0370R-FITC) for 1 h. The brain sections were washed with TBST (pH = 7.4, 3 × 5 min). Finally, overnight staining with DGC (200 μM) at 4 °C and fluorescence imaging were obtained by the CLSM system.
Brain sections from female APP/PS1 double transgenic mice were used as AD models, and brain sections of the age-matched female wild-type C57BL/6J mice were used as controls to evaluate the availability of DGC in vitro. Three-month-old APP/PS1 mice (early-stage, unestablished Aβ plaques) and 9-month-old APP/PS1 mice (late-stage, established Aβ plaques) were chosen for comparison. All mice were purchased from Beijing HFK Bioscience Co., Ltd and handled in accordance with the Ethics Committee of Beijing University of Technology, China. To avoid the interference of strong background fluorescence signals of blood in cerebral microvessels, the blood vessels were emptied by cardiac perfusion with saline and PFA before dissociating the brain. After the completion of perfusion, the brain was collected and fixed with PFA for a longer time ex vivo. The embedded brain was then sectioned using a microtome into 5-μm thick continuous sections. The brain sections were labeled with DGC or CTGF, GFAP, and Aβ antibodies. Deparaffinization was performed first and antigen retrieval was implemented with immersion of the brain sections into Tris-EDTA buffer (pH = 9.0) at 95 °C for 15 min. Then, the brain sections were incubated with 3% bovine serum albumin for 1.5 h.
For fluorescence imaging of CTGF, the brain sections were stained with anti-CTGF primary antibody (dilution 1:50, Abcam, Cat#ab6992), anti-glial fibrillary acidic protein (GFAP) primary antibody (diluted 1:400, Proteintech, Cat#16825-1-AP) or anti-Aβ 17-24 (4G8, diluted 1:1000, BioLegend, Cat#SIG-39200) at 4 °C for 4 h. After they were washed by TBST (pH = 7.4, 3 × 5 min) at room temperature, the brain sections were incubated with the secondary antibody (FITC-labeled Goat Anti-Rabbit IgG (H + L) (1: dilution 1:200, Bioss, Cat#bs-0370R-FITC) for 1 h. After the brain sections were washed by TBST (pH = 7.4, 3 × 5 min). Finally, the brain sections were co-stained by DGC (200 μM) at 4 °C overnight, and the staining results were acquired on the CLSM system.

CTGF [3] = biological target: T1, CTGF; test: ICP-MS of Au content in DGC-labelled mouse brain sections; design: species or system APP/PS1 and wild-type C57BL/6J mice
Method: The DGC in the brain section was measured by ICP-MS. Briefly, the brain sections were digested with 5 mL mix solution (HNO3 and H2O2 = 3:1) overnight. Then, each section was digested at a mild boiling temperature until the solution was evaporated to 0.1–0.2 mL and added 5 mL aqua regia (HCl: HNO3 = 3:1) overnight. Then each section was digested at a mild boiling temperature until the solution was evaporated to 0.1– 0.2 mL and diluted by 2% HNO3 and 1% HCl to the final volume.

CTX TNA2 cells = test: Cytotoxicity of DGC (CCK-8); type: cell-based; design: key: viability relative to control cells (control = 1); conditions: 200 μM (Au content), 24 h, CCK-8, normalized to control

Substance: DGC: CTGF-targeting peptide-coated gold nanocluster: one Au26 gold nanocluster coated by eight DAG cyclic peptides, NIR-II and red fluorescence (CDAGRKQKC; also: cyclic peptide, ring not given here, eight peptides on one Au26 nanocluster via Cys Au-S bonds)
- ICP-MS DGC (Au) content per cell (CTGF [1]; DGC-labelled CTX TNA2 cells, replicate 1): 1.359
- ICP-MS DGC (Au) content per cell (CTGF [1]; DGC-labelled CTX TNA2 cells, replicate 2): 1.246
- ICP-MS DGC (Au) content per cell (CTGF [1]; DGC-labelled CTX TNA2 cells, replicate 3): 1.418
- ICP-MS DGC (Au) content per cell (CTGF [1]; DGC-labelled SH-SY5Y cells, replicate 1): 3.579
- ICP-MS DGC (Au) content per cell (CTGF [1]; DGC-labelled SH-SY5Y cells, replicate 2): 3.885
- ICP-MS DGC (Au) content per cell (CTGF [1]; DGC-labelled SH-SY5Y cells, replicate 3): 3.913
- ICP-MS DGC (Au) content per cell (CTGF [1]; DGC-labelled U87MG cells, replicate 1): 9.5834
- ICP-MS DGC (Au) content per cell (CTGF [1]; DGC-labelled U87MG cells, replicate 2): 9.979
- ICP-MS DGC (Au) content per cell (CTGF [1]; DGC-labelled U87MG cells, replicate 3): 9.837
- FL intensity of DGC on brain section (CTGF [2]; 3-month-old APP/PS1 mouse brain section, section 1): 0.02124
- FL intensity of DGC on brain section (CTGF [2]; 3-month-old APP/PS1 mouse brain section, section 2): 0.02275
- FL intensity of DGC on brain section (CTGF [2]; 3-month-old APP/PS1 mouse brain section, section 3): 0.01511
- FL intensity of DGC on brain section (CTGF [2]; 9-month-old APP/PS1 mouse brain section, section 1): 0.0369
- FL intensity of DGC on brain section (CTGF [2]; 9-month-old APP/PS1 mouse brain section, section 2): 0.0329
- FL intensity of DGC on brain section (CTGF [2]; 9-month-old APP/PS1 mouse brain section, section 3): 0.0406
- FL intensity of DGC on brain section (CTGF [2]; WT mouse brain section, section 1): 0.00435
- FL intensity of DGC on brain section (CTGF [2]; WT mouse brain section, section 2): 0.0071
- FL intensity of DGC on brain section (CTGF [2]; WT mouse brain section, section 3): 0.0055
- ICP-MS Au content per section (CTGF [3]; 3-month-old APP/PS1 mouse brain section incubated with DGC, section 1): 36.3
- ICP-MS Au content per section (CTGF [3]; 3-month-old APP/PS1 mouse brain section incubated with DGC, section 2): 50.92
- ICP-MS Au content per section (CTGF [3]; 3-month-old APP/PS1 mouse brain section incubated with DGC, section 3): 74.61
- ICP-MS Au content per section (CTGF [3]; 9-month-old APP/PS1 mouse brain section incubated with DGC, section 1): 87.62
- ICP-MS Au content per section (CTGF [3]; 9-month-old APP/PS1 mouse brain section incubated with DGC, section 2): 82.72
- ICP-MS Au content per section (CTGF [3]; 9-month-old APP/PS1 mouse brain section incubated with DGC, section 3): 97.01
- ICP-MS Au content per section (CTGF [3]; WT mouse brain section incubated with DGC, section 1): 11.2
- ICP-MS Au content per section (CTGF [3]; WT mouse brain section incubated with DGC, section 2): 23.11
- ICP-MS Au content per section (CTGF [3]; WT mouse brain section incubated with DGC, section 3): 12.01
- Cell viability (CTX TNA2 cells; replicate 1): 1.4709
- Cell viability (CTX TNA2 cells; replicate 2): 1.567
- Cell viability (CTX TNA2 cells; replicate 3): 1.589
